Where two headings read alike, the source gives them in different places.

In one data set the target is HuR123 (UniProt Q15717 1-306). Briefly: SPR.
For the next data set, the target named is T1, TIAR123 (UniProt Q01085 1-283).
T1 sequence: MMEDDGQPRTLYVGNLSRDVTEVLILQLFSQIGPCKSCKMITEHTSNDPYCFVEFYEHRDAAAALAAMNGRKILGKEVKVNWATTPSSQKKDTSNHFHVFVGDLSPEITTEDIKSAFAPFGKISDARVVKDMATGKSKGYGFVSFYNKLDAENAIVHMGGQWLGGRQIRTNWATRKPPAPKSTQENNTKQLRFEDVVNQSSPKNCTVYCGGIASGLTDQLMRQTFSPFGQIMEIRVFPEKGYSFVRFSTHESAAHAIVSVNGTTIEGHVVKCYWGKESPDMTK
Briefly: SPR.

In data set [1] the target is T2, TIAR12 (UniProt Q01085 1-181).
T2 sequence: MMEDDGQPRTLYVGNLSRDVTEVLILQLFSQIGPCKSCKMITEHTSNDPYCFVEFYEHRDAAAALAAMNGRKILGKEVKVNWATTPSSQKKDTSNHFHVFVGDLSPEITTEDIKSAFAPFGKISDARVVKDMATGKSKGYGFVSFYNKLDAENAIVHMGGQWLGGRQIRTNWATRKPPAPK
Briefly: SPR.

The target of a further data set is HuR12 (UniProt Q15717 18-184). Briefly: SPR. On the technique in general: In SPR one partner is held on a chip, and binding of the other changes the refractive index at the surface.
For data set [2], the target named is T2, TIAR12. Briefly: size exclusion chromatography. On the technique in general: Size exclusion chromatography separates by hydrodynamic size, large species first.
Data set [3] addresses T2, TIAR12. Briefly: SPR. The source holds these as a separate data set.

HuR12, sequence (Q15717 18-184): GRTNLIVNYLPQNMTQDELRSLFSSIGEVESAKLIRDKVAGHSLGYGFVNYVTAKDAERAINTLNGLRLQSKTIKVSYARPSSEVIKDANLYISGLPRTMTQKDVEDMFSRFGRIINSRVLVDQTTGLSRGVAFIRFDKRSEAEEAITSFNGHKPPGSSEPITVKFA
HuR123, sequence (Q15717 1-306): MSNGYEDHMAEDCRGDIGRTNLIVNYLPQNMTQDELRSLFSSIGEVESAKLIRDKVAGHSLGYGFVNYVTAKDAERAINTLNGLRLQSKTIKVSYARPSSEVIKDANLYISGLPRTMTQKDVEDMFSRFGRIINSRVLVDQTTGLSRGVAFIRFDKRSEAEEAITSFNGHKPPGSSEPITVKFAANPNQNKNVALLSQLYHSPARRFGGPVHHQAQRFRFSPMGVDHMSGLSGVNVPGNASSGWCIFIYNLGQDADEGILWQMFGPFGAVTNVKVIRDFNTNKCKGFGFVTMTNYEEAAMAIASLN

B1: AU-rich RNA 28-mer (TNF-alpha ARE) (ssRNA)
RNA: GGGGGGUAUUUAUUAUUUAUUUAGGGGG
As to B1, the Kd with HuR123 is 0.2 ± 0.007 nM; with TIAR123, 14.1 ± 0.22 nM; with TIAR12 [1], 42.5 ± 0.63 nM; with HuR12, 506 ± 13.1 nM.

B2: U-rich RNA 13-mer (solution) (ssRNA)
RNA: UUUUUUUUUUUUU
As for B2, the binding result with TIAR12 [2] is on record as “binds”.

B3: U-rich RNA 8-mer (ssRNA)
RNA: UUUUUUUU
B3 showed a Kd with HuR12 of 4700 ± 116 nM.

B4: U-rich RNA 17-mer (ssRNA)
RNA: UUUUUUUUUUUUUUUUU
The molecule B4 registered a Kd in the data set with HuR12 of 40 ± 24 nM.

B5: U-rich RNA 13-mer (ssRNA)
RNA: UUUUUUUUUUUUU
On to B5, for which the dissociation constant Kd with HuR12 turned out to be 195 ± 6.3 nM.

B6: U-rich RNA 28-mer (ssRNA)
RNA: GGGGGGUUUUUUUUUUUUUUUUUGGGGG
B6 had a Kd with HuR123 of 0.05 ± 0.001 nM.

B7: T-rich DNA 20-mer (ssDNA)
DNA: TTTTTTTTTTTTTTTTTTTT
B7: the Kd with HuR12 was 2640 ± 82.3 nM; in the data set with TIAR12 [3], 3.81 ± 0.74 nM.

B8: U-rich DNA 20-mer (ssDNA)
DNA: UUUUUUUUUUUUUUUUUUUU
modifications: all deoxyuridine (2'-deoxy)
For B8, the Kd in the data set with TIAR12 [1] is 21.7 ± 0.38 nM; with HuR12 it was 20600 ± 1570 nM.

What is called Kd is the free concentration of one partner at which half of the binding sites on the other are occupied at equilibrium, for simple one-to-one binding.

(Values after article PMC3035456.)
